The values below come from US20090202531A1 (Novartis, published 2009).

The target in assay [1] is T1, human FcγRIIIa-158F (human, UniProt P08637 17-208, limits assumed).
T1 construct: also called FcγRIIIa aa158F allele
The assay can be described thus: Biacore (SPR); reference rituximab on the same allele.

Assay [2] deals with T1, human FcγRIIIa-158F. The assay can be described thus: Biacore (SPR).
The next assay deals with T2, human FcγRIIIa-158V (human, UniProt P08637 17-208).
T2 construct: also called FcγRIIIa aa518V allele (sic); FcγRIIIa aa158V
T2 sequence (P08637 17-208 F176V): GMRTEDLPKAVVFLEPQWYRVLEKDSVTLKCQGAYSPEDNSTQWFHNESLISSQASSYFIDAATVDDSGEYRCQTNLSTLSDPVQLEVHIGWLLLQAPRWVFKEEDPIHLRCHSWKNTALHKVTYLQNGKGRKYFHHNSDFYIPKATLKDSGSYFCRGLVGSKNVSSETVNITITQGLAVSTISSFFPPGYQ
The assay can be described thus: Biacore (SPR).

T1 sequence (P08637 17-208 limits assumed): as the sequence (P08637 17-208 F176V) above, with V160F counted along it

B1: monoclonal antibody CHIR-12.12 (antibody)
heavy: not shown
light: DIVMTQSPLSLTVTPGEPASISCRSSQSLLYSNGYNYLDWYLQKPGQSPQVLISLGSNRASGVPDRFSGSGSGTDFTLKISRVEAEDVGVYYCMQARQTPFTFGPGTKVDIRRTVAAPSVFIFPPSDEQLKSGTASVVCLLNNFYPREAKVQWKVDNALQSGNSQESVTEQDSKDSTYSLSSTLTLSKADYEKHKVYACEVTHQGLSSPVTKSFNRGEC
notes: Fully human anti-CD40 IgG1 kappa; also called CH12.12
B1: the “fold higher affinity compared with rituximab” value in the assay with human FcγRIIIa-158F [1] was 4.6 fold. Besides, the equilibrium dissociation constant (Kd) with human FcγRIIIa-158F [2] is 2800 nM; with human FcγRIIIa-158V, 492 nM.
